The chains are these.
T1: Abp1 SH3 (ABP1_YEAST), P15891
T1 chain: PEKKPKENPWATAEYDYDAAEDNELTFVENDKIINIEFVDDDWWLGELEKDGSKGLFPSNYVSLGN

B1: YML007W 309-321 (peptide)
chain: VSGTRQSPIPKKP
B2: YBL009W 142-155 (peptide)
chain: TKVTNSKFRTPLRP
B3: YLR414C 249-261 (peptide)
chain: TVIYANAPIEEKP
B4: YBR289W 757-769 (peptide)
chain: TTTYKSRPDRPKP
B5: YJR137C 1184-1197 (peptide)
chain: VEEYWGKKFEPERP
B6: YGL134W 27-40 (peptide)
chain: VDDYNASFELPLKP
B7: YGL169W 237-249 (peptide)
chain: VDGLSNPPTLLRP
B8: YKL148C 463-476 (peptide)
chain: TVADTLQPGLPHKP
B9: YDR128W 70-82 (peptide)
chain: VADVQWSPHPAKP
B10: YGR165W 78-90 (peptide)
chain: TVPTNHVPNYIKP
B11: YBL031W 191-203 (peptide)
chain: TPLSKPKPFMHKP
B12: YHR100C 9-21 (peptide)
chain: TLRLLYNPSLSKP
B13: YKR084C 138-151 (peptide)
chain: TVQRYYKTTVPTKP
B14: YGL115W 118-131 (peptide)
chain: VDQLDTASIHPSRP
B15: YIL095W 739-752 (peptide)
chain: TKSNGKDKSRPPRP
B16: YLR431C 386-399 (peptide)
chain: TTAQDGSSALPSKP
B17: YDR379W 561-573 (peptide)
chain: TPPLESGPLFKRP
B18: YLL003W 876-888 (peptide)
chain: TTGLNGSPTRGKP
B19: YDR389W 475-487 (peptide)
chain: TSKMLKPPKQRRP
B20: YNL226W 110-123 (peptide)
chain: TRKSVNIKSWPLKP
B21: YKL109W 65-77 (peptide)
chain: TSKHWVLPPRPRP
B22: YJR122W 470-483 (peptide)
chain: TTKGENIKITPQKP
B23: YEL044W 99-111 (peptide)
chain: TYFSVEAPPSIRP
B24: YDL202W 178-191 (peptide)
chain: VEKINTFKTLPTKP
B25: YGR127W 236-248 (peptide)
chain: TMNTIYVPPLRRP
B26: YOL148C 219-231 (peptide)
chain: TNTVDVTPKENKP
B27: YNL108C 86-99 (peptide)
chain: VDRGVGEWYKPDRP
B28: YNR051C 370-383 (peptide)
chain: TVEYIRPETLPKKP
B29: YML074C 275-288 (peptide)
chain: VEFKKDLEEGPTKP
B30: YLR249W 670-682 (peptide)
chain: TNMEFQYPGTSKP
B31: YER095W 331-344 (peptide)
chain: VDGGMAFNPDPKKP
B32: YKL220C 449-461 (peptide)
chain: TVKKPARPWRAKP
B33: YJL005W 370-382 (peptide)
chain: TTPTIETPISSKP
B34: YOR022C 44-56 (peptide)
chain: TYQTLHSPKKFKP
B35: YDR176W 125-138 (peptide)
chain: TNIIDKGVQSPPKP
B36: YOR329C 400-413 (peptide)
chain: TTVPQQLPLEPLKP
B37: YGR210C 280-292 (peptide)
chain: VDTFEDEPDKLKP
B38: YPL221W 502-514 (peptide)
chain: VAIIRYKPYLDRP
B39: YBL047C 1258-1270 (peptide)
chain: TLTSSSNPTIPKP
B40: YGL139W 508-520 (peptide)
chain: VAIIYYKPYLDRP
B41: YKL188C 543-556 (peptide)
chain: VDRDSAIFYLPQRP
B42: YPL015C 81-93 (peptide)
chain: TLAKELYPGNFRP
B43: YJR061W 698-711 (peptide)
chain: TMFSGVSAFVPNRP
B44: YBL014C 33-45 (peptide)
chain: TTKKQENPQWLRP
B45: YGL169W 124-136 (peptide)
chain: TSLFDNIPSIYRP
B46: YMR124W 350-362 (peptide)
chain: TNGPRYSPQNPRP
B47: YBR115C 740-752 (peptide)
chain: TLITFMVPRFDKP
B48: YML016C 58-71 (peptide)
chain: TNSNVPDPSTPSKP
B49: YDR128W 137-150 (peptide)
chain: TYVHAWDMRSPHRP
B50: YGL160W 214-226 (peptide)
chain: VAFILLTPIHSRP
B51: YGL122C 280-292 (peptide)
chain: TKVSNEYPNSPKP
B52: YBL017C 681-694 (peptide)
chain: VSDKTKKKTVPVKP
B53: YJR024C 74-86 (peptide)
chain: TLEYLRSPKLYKP
B54: YDL224C 233-245 (peptide)
chain: TSSSPLGPSAAKP

Our source for the normalised SPOT signal, Boehringer light units (BLU); mean over the file's lines of this peptide values is paper PMC314469, “Protein Interaction Networks by Proteome Peptide Scanning” (PLoS Biology, 2004).

The assay deals with T1, Abp1 SH3 (ABP1_YEAST), P15891. In words: SPOT array.
B1 returned a normalised SPOT signal, Boehringer light units (BLU); mean over the file's lines of this peptide of 935.

Molecule B2 displayed a normalised SPOT signal, Boehringer light units (BLU); mean over the file's lines of this peptide of 137.

Molecule B3 displayed a normalised SPOT signal, Boehringer light units (BLU); mean over the file's lines of this peptide of 191.

B4: the normalised SPOT signal, Boehringer light units (BLU); mean over the file's lines of this peptide is 1770.

Consider B5, for which the normalised SPOT signal, Boehringer light units (BLU); mean over the file's lines of this peptide is 89.3.

On to B6, for which the normalised SPOT signal, Boehringer light units (BLU); mean over the file's lines of this peptide was 95.4.

B7 returned a normalised SPOT signal, Boehringer light units (BLU); mean over the file's lines of this peptide of 21.8.

Molecule B8 had a normalised SPOT signal, Boehringer light units (BLU); mean over the file's lines of this peptide of 169.

In the case of B9, the normalised SPOT signal, Boehringer light units (BLU); mean over the file's lines of this peptide worked out at 66.3.

B10 displayed a normalised SPOT signal, Boehringer light units (BLU); mean over the file's lines of this peptide of 3.6.

B11 showed a normalised SPOT signal, Boehringer light units (BLU); mean over the file's lines of this peptide of 11300.

The molecule B12 returned a normalised SPOT signal, Boehringer light units (BLU); mean over the file's lines of this peptide of 61.

In the case of B13, the normalised SPOT signal, Boehringer light units (BLU); mean over the file's lines of this peptide worked out at 352.

Molecule B14 displayed a normalised SPOT signal, Boehringer light units (BLU); mean over the file's lines of this peptide of 110.

As to B15, the normalised SPOT signal, Boehringer light units (BLU); mean over the file's lines of this peptide worked out at 141.

Molecule B16 came in with a normalised SPOT signal, Boehringer light units (BLU); mean over the file's lines of this peptide of 133.

In turn, B17 returned a normalised SPOT signal, Boehringer light units (BLU); mean over the file's lines of this peptide of 55.6.

Molecule B18 displayed a normalised SPOT signal, Boehringer light units (BLU); mean over the file's lines of this peptide of 83.1.

The molecule B19 yielded a normalised SPOT signal, Boehringer light units (BLU); mean over the file's lines of this peptide of 617.

B20 had a normalised SPOT signal, Boehringer light units (BLU); mean over the file's lines of this peptide of 124.

In turn, B21 yielded a normalised SPOT signal, Boehringer light units (BLU); mean over the file's lines of this peptide of 3940.

Regarding B22, the normalised SPOT signal, Boehringer light units (BLU); mean over the file's lines of this peptide was 166.

For the molecule B23, the normalised SPOT signal, Boehringer light units (BLU); mean over the file's lines of this peptide was found to be 76.1.

The molecule B24 had a normalised SPOT signal, Boehringer light units (BLU); mean over the file's lines of this peptide of 385.

In turn, B25 yielded a normalised SPOT signal, Boehringer light units (BLU); mean over the file's lines of this peptide of 3360.

The molecule B26 had a normalised SPOT signal, Boehringer light units (BLU); mean over the file's lines of this peptide of 40.3.

The molecule B27 showed a normalised SPOT signal, Boehringer light units (BLU); mean over the file's lines of this peptide of 172.

Molecule B28 yielded a normalised SPOT signal, Boehringer light units (BLU); mean over the file's lines of this peptide of 65.5.

For the molecule B29, the normalised SPOT signal, Boehringer light units (BLU); mean over the file's lines of this peptide was 82.

Regarding B30, the normalised SPOT signal, Boehringer light units (BLU); mean over the file's lines of this peptide stood at 93.7.

B31 registered a normalised SPOT signal, Boehringer light units (BLU); mean over the file's lines of this peptide of 74.7.

Consider B32, for which the normalised SPOT signal, Boehringer light units (BLU); mean over the file's lines of this peptide amounted to 356.

For the molecule B33, the normalised SPOT signal, Boehringer light units (BLU); mean over the file's lines of this peptide was determined as 38.3.

On to B34, for which the normalised SPOT signal, Boehringer light units (BLU); mean over the file's lines of this peptide worked out at 176.

As to B35, the normalised SPOT signal, Boehringer light units (BLU); mean over the file's lines of this peptide turned out to be 140.

Take B36: the normalised SPOT signal, Boehringer light units (BLU); mean over the file's lines of this peptide was 104.

Consider B37, for which the normalised SPOT signal, Boehringer light units (BLU); mean over the file's lines of this peptide is 93.9.

The molecule B38 had a normalised SPOT signal, Boehringer light units (BLU); mean over the file's lines of this peptide of 156.

The molecule B39 yielded a normalised SPOT signal, Boehringer light units (BLU); mean over the file's lines of this peptide of 129.

The molecule B40 yielded a normalised SPOT signal, Boehringer light units (BLU); mean over the file's lines of this peptide of 76.3.

B41 registered a normalised SPOT signal, Boehringer light units (BLU); mean over the file's lines of this peptide of 66.1.

B42 gave a normalised SPOT signal, Boehringer light units (BLU); mean over the file's lines of this peptide of 54.

B43 returned a normalised SPOT signal, Boehringer light units (BLU); mean over the file's lines of this peptide of 451.

On to B44, for which the normalised SPOT signal, Boehringer light units (BLU); mean over the file's lines of this peptide worked out at 126.

Turning to B45, the normalised SPOT signal, Boehringer light units (BLU); mean over the file's lines of this peptide is 43.4.

B46 registered a normalised SPOT signal, Boehringer light units (BLU); mean over the file's lines of this peptide of 749.

B47 came in with a normalised SPOT signal, Boehringer light units (BLU); mean over the file's lines of this peptide of 0.

B48 had a normalised SPOT signal, Boehringer light units (BLU); mean over the file's lines of this peptide of 78.1.

As for B49, the normalised SPOT signal, Boehringer light units (BLU); mean over the file's lines of this peptide worked out at 489.

For B50, the normalised SPOT signal, Boehringer light units (BLU); mean over the file's lines of this peptide was 48.3.

B51 had a normalised SPOT signal, Boehringer light units (BLU); mean over the file's lines of this peptide of 146.

B52 yielded a normalised SPOT signal, Boehringer light units (BLU); mean over the file's lines of this peptide of 171.

In turn, B53 displayed a normalised SPOT signal, Boehringer light units (BLU); mean over the file's lines of this peptide of 193.

For B54, the normalised SPOT signal, Boehringer light units (BLU); mean over the file's lines of this peptide is 133.
